Source: patent publication US20210380703A1 (RIGEL PHARMACEUTICALS, published 2021)
Substitutions are numbered along the chain they refer to.

B1: 368_B07 (antibody, V domains shown)
VH: EVQLLESGGGLVQPGGSLRLSCAASGFTFSDYSMNWVRQAPGKGLEWVSNINYNGGYKSYADSVKGRFTISRDNSKNTLYLQMNSLRAEDTAVYYCARSANWHDTALDYWGQGTLVTVSS
VL: DIQMTQSPSSLSASVGDRVTITCRASQSIVSYLNWYQQKPGKAPKLLIYAATSLASGVPSRFSGSGSGTDFTLTISSLQPEDFATYYCQQSYSSPLTFGGGTKVEIK
B2: 369_F10 (antibody, V domains shown)
VH: B1 VH with S30D, D31S, S33G, G55S
VL: B1 VL with S31T, A51V, L54R, S93D, S94L
B3: 368_E01 (antibody, V domains shown)
VH: B1 VH with D31S, S49A, N50S, G55S, K58T, S59G, A106H
VL: B1 VL with V30L, A51V, L54R, A55H, S94L
B4: 369_F06 (antibody, V domains shown)
VH: B1 VH with S30D, S49A, N50G, S59G
VL: B1 VL with L33V, L47V, L54R, S93D
B5: 369_A02 (antibody, V domains shown)
VH: B1 VH with D31S, S49A, N50G, G55S, K58T, S59G, A106H
VL: B1 VL with V30L, L33V, L54R, S93D, S94L
B6: 369_B01 (antibody, V domains shown)
VH: B1 VH with D31S, N50G, K58T
VL: B1 VL with V30L, A51V, L54R, S93E, S94N
B7: 368_D04 (antibody, V domains shown)
VH: B1 VH with D31S, S33G, N50G
VL: B1 VL with V30S, S31T, L33V, L47V, A51V, L54R, A55H, S93D
B8: 368_E04 (antibody, V domains shown)
VH: B1 VH with D31S, S49A, G55S, K58T, S59G
VL: B1 VL with V30L, L33V, L54R, A55H, S93D, S94N
B9: 369_C03 (antibody, V domains shown)
VH: B1 VH with D31S, S33G
VL: B1 VL with V30L, S31T, L47V, L54R, S93D
B10: 369_D12 (antibody, V domains shown)
VH: B1 VH with S30D, D31S, S49A, N50G, G55S, K58T
VL: B1 VL with V30L, S93D, S94T
B11: 368_E06 (antibody, V domains shown)
VH: B1 VH with S33G, N35H, N50G, K58T, S59G
VL: B1 VL with V30L, L47V, A50G, L54R, S93D
B12: 369_F03 (antibody, V domains shown)
VH: B1 VH with S33G, N50G, G55S, K58T
VL: B1 VL with L33V, S93D
B13: 368_H04 (antibody, V domains shown)
VH: B1 VH with D31S, S49A, N50G, G55S, S59G, R98K, A106H
VL: B1 VL with L33V, L54R, S93D
B14: 368_C05 (antibody, V domains shown)
VH: B1 VH with S30D, D31S, S33G, N50G, G55S, K58T
VL: B1 VL with V30L, L47V, L54R, Y92D, S94N
B15: 369_D02 (antibody, V domains shown)
VH: B1 VH with G55S, K58T, S59G
VL: B1 VL with V30L, L47V, A51V, L54R, S93D, S94T
B16: 369_G01 (antibody, V domains shown)
VH: B1 VH with D31S, G55S
VL: B1 VL with V30L, L33V, L54R
B17: 369_C04 (antibody, V domains shown)
VH: B1 VH with D31S, K58T, S59G
VL: B1 VL with V30L, S31T, L33V, A50T, A51T, A55H, S93N, S94N
B18: 368_D11 (antibody, V domains shown)
VH: B1 VH with S30D, S33G
VL: B1 VL with V30L, S31T, L47V, L54R, S93D, S94L
B19: 368_E02 (antibody, V domains shown)
VH: B1 VH with S30D, D31S, S49A, N50G, G55S, K58T, A106H
VL: B1 VL with V30L, S31T, L54R
B20: 368_D01 (antibody, V domains shown)
VH: B1 VH with D31S, S33G, N35H, S49A, K58T
VL: B1 VL with V30L, L47V, L54R, Y92D, S94T
B21: 369_D04 (antibody, V domains shown)
VH: B1 VH with S30D, D31S, S33G, N50G, K58T
VL: B1 VL with V30L, L33V, L47V, L54R, S93N, S94L
B22: 368_G12 (antibody, V domains shown)
VH: B1 VH with D31S, S33G, S49A, N50S, G55S, K58T, S59G
VL: B1 VL with V30S, L33V, L47V, A51V, L54R, S93E, S94T
B23: 368_D05 (antibody, V domains shown)
VH: B1 VH with D31S, N50G, K58T
VL: B1 VL with V30L, S31T, L47V, L54R, Y92D, S93D
B24: 369_E02 (antibody, V domains shown)
VH: B1 VH with S30D, D31S, S33G, K58T, S59G
VL: B1 VL with L33V, A51T, L54R, A55H, S93D, S94N
B25: 369_C02 (antibody, V domains shown)
VH: B1 VH with S30D, D31S
VL: B1 VL with V30L, S31T, L47V, L54R, S93E, S94L
B26: 369_D01 (antibody, V domains shown)
VH: B1 VH with S33G, S49A, N50S, K58T, S59G
VL: B1 VL with V30L, S31T, L54R, S94N
B27: 369_E11 (antibody, V domains shown)
VH: B1 VH with D31S, S33G, K58T
VL: B1 VL with V30I, S93D, S94T
B28: 368_F11 (antibody, V domains shown)
VH: B1 VH with S33G, N50G, K58T, A106H
VL: B1 VL with L33V, L47V, L54R, S93N, S94N
B29: 369_G04 (antibody, V domains shown)
VH: B1 VH with S30D, D31S, N50G, K58T
VL: B1 VL with V30L, S31T, L33V, A51T, L54R, A55H, S93E, S94T
B30: 368_G01 (antibody, V domains shown)
VH: B1 VH with S33G, N35H, S49A, N50S, G55S, K58T
VL: B1 VL with V30L, S31T, L47V, L54R, S93N, S94L
B31: 369_F02 (antibody, V domains shown)
VH: B1 VH with D31S, S33G, S49A, N50S, G55S
VL: B1 VL with L47V, L54R, S93D, S94T
B32: 369_F01 (antibody, V domains shown)
VH: B1 VH with D31S, S33G, N50G
VL: B1 VL with V30L, S31T, L33V, L54R, S93E, S94L
B33: 369_F11 (antibody, V domains shown)
VH: B1 VH with S30D, D31S, S33G, G55S
VL: B1 VL with V30I, L54R, S93D, S94L
B34: 368_E07 (antibody, V domains shown)
VH: B1 VH with D31S, S33G, S49A, N50G, K58T, R98K
VL: B1 VL with V30L, A51V, L54R, S93E, S94N
B35: 369_E12 (antibody, V domains shown)
VH: B1 VH with D31S, S33G, N35H, S49A, N50S, G55S, K58T
VL: B1 VL with V30I, L54R, S93E
B36: 368_F03 (antibody, V domains shown)
VH: B1 VH with S30D, D31S, S49A, N50G, G55S, K58T, S59G, R98K
VL: B1 VL with V30I, L47V, L54R, A55H, S93D

Experiments:
[1] = target: T1, Goat anti-Human Kappa; assay: ELISA, positive control
T1 construct: Positive control of the ELISA; also called biotinylated goat anti-human kappa light chain
Procedure, shortened: (§1)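 Binding signal was read by ELISA after ACVR2A-specific monoclonal antibodies were tested against human ACVR2A and mouse ACVR2A, with human Fc as the negative control.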

[2] = target: T2, Human ACVR2A (human, UniProt P27037 20-135, limits assumed); assay: ELISA
T2 construct: also called activin receptor, type II A
Procedure, shortened: as §1

[3] = target: Mouse ACVR2A (mouse, UniProt P27038 20-135, limits assumed); assay: ELISA
Procedure, shortened: as §1
Also: test concentration or dose not given here.

Mouse ACVR2A, sequence (P27038 20-135 limits assumed): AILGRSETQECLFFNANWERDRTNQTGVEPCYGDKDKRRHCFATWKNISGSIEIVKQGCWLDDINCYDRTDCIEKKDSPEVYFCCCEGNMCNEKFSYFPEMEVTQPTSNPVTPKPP
T2 sequence (P27037 20-135 limits assumed): as the sequence (P27038 20-135 limits assumed) above, with R20K, I73V counted along it

| Binder | optical density [1] [OD] | optical density [2] [OD] | optical density [3] [OD] |
| --- | --- | --- | --- |
| B1 | 3.13 | 1.91 | 2.06 |
| B2 | 3.67 | 3.05 | 3.23 |
| B3 | 3.74 | 2.57 | 2.85 |
| B4 | 3.51 | 3.11 | 3.07 |
| B5 | 3.49 | 3.15 | 3.46 |
| B6 | 3.59 | 3.36 | 3.46 |
| B7 | 3.67 | 2.46 | 2.7 |
| B8 | 3.48 | 3.08 | 3.23 |
| B9 | 3.52 | 3.37 | 3.65 |
| B10 | 3.53 | 3.04 | 3.1 |
| B11 | 3.5 | 2.33 | 2.34 |
| B12 | 3.44 | 2.58 | 2.75 |
| B13 | 3.51 | 1.06 | 1.36 |
| B14 | 3.36 | 1.82 | 2.02 |
| B15 | 3.53 | 3.29 | 3.44 |
| B16 | 3.44 | 3.57 | 3.67 |
| B17 | 2.46 | 1.64 | 1.65 |
| B18 | 3.49 | 2.8 | 2.96 |

| Binder | optical density [1] [OD] | optical density [2] [OD] | optical density [3] [OD] |
| --- | --- | --- | --- |
| B19 | 3.68 | 2.5 | 2.79 |
| B20 | 3.65 | 2.75 | 2.97 |
| B21 | 3.59 | 3.05 | 2.97 |
| B22 | 3.52 | 2.46 | 2.54 |
| B23 | 3.38 | 2.86 | 2.87 |
| B24 | 3.43 | 2.14 | 2.34 |
| B25 | 3.54 | 3.6 | 3.52 |
| B26 | 3.63 | 3.13 | 3.32 |
| B27 | 3.69 | 2.89 | 3.2 |
| B28 | 3.53 | 2.58 | 2.73 |
| B29 | 3.32 | 2.37 | 2.69 |
| B30 | 3.62 | 2.65 | 2.82 |
| B31 | 3.56 | 3.07 | 3.35 |
| B32 | 3.47 | 3.28 | 3.42 |
| B33 | 3.66 | 3.2 | 3.37 |
| B34 | 3.45 | 1.07 | 1.17 |
| B35 | 3.67 | 2.46 | 2.69 |
| B36 | 3.6 | 2.35 | 2.6 |
